The values below come from publication PMC5538626 (EMBO Reports, 2017).

Holding throughout (conditions): both partners purified
Assay [1] concerns the target T1, GABARAP R28K (human, UniProt O95166 1-117, R28K).
T1 construct: GABARAP, human, with R28K; also called GABARAP R28K mutant
Nature of the assay: ITC; peptide at 0.4 mM titrated into 0.020 mM LC3B or GABARAP protein in 26 steps, 25 C, VP-ITC, one-site model; 50 mM Na2HPO4, 100 mM NaCl, pH 7.0. (In general: ITC needs no label: the signal is the heat of the interaction.)

Assay [2] has as its target LC3B K30R (human, UniProt Q9GZQ8 1-120, K30R). The description is as above.
The target in assay [3] is T2, 6xHis-tagged GABARAP (human, UniProt O95166 1-117).
T2 construct: GABARAP, human; also called HIS6-GABARAP; source: isolated from E. coli
T2 sequence (O95166 whole entry): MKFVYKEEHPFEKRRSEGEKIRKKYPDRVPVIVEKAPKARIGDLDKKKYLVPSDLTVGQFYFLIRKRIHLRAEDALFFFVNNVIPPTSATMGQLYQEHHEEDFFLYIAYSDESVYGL
Nature of the assay: peptide or protein array; biotinylated peptides immobilised on streptavidin-coated 96-well plates, 1 uM His6-tagged mATG8 in PBS, 0.1% Tween-20, 1% BSA, 1 h at 8 C, detected with anti-His-HRP and TMB at 450 nm; expressed relative to the WT LIR peptide.

Assay [4] deals with T3, 6xHis-tagged GABARAP-L1 (human, UniProt Q9H0R8 1-117).
T3 construct: GABARAP-L1, human; also called HIS6-GABARAP-L1; source: isolated from E. coli
T3 sequence (Q9H0R8 whole entry, looked up): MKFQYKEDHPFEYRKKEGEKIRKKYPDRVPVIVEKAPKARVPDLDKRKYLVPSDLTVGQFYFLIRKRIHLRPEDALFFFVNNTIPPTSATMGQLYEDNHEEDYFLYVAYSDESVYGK
The assay is described as above.

Ends that are not written are not given here.

T1 sequence (O95166 whole entry R28K): as the sequence (O95166 whole entry) above, with R28K counted along it

B1: PLEKHM1-LIR peptide (GAMG-P629QQEDEWVNVQYPD642) (peptide)
peptide: GAMGPQQEDEWVNVQYPD
notes: cloning artefact left after TEV cleavage; PLEKHM1, LIR region, residues 629-642; Used non-labelled in ITC and in the LC3C co-crystal, 15N-labelled in the NMR titrations with non-labelled proteins; The Appendix (D1:p2) calls the ITC peptide 'synthetic', the methods describe the recombinant preparation; also called PLEKHM1-LIR WT; PLEKHM1 629-642; source: E. coli NEB T7, expressed as …
The Kd is the free concentration of one partner at which half of the binding sites on the other are occupied at equilibrium, for simple one-to-one binding. A higher Kd goes with lower affinity. The stoichiometry N is the number of molecules, sites or subunits per partner or assembly. Consider B1, for which, in assay [1], the Ka was found to be 1.9e+06 M⁻¹, the Kd turned out to be 540 nM and the “stoichiometry N” value worked out at 1.05 ± 0.01. In assay [2], the Ka is 190000 M⁻¹, binding was characterised by a dissociation constant (Kd) of 5260 nM and the “stoichiometry N” value was 1.11 ± 0.02.

B2: Biotinylated PLEKHM1-LIR V636I peptide (peptide, UniProt Q9Y4G2 632-640, looked up)
peptide: EDEWINVQY
modifications: also: biotinylated, position not given here
notes: also called V636X with X = I; I in position X1; source: synthetic peptide, bought: JPT, Germany
For the molecule B2, the binding result in assay [3] is given as “binds”.

B3: Biotinylated PLEKHM1-LIR V636L peptide (peptide)
peptide: EDEWLNVQY
modifications: also: biotinylated, position not given here
notes: also called V636X with X = L; L in position X1; source: synthetic peptide, bought: JPT, Germany
As to B3, in assay [4], the binding result is reported as “binds”.
